Publication doi:10.1101/2024.05.17.594632 (bioRxiv, 2024)

Target: the molecule itself
Assay: cryo-EM structure

B1: full-length phytochrome from Pseudomonas aeruginosa (PaBphP) (enzyme)
chain: MTSITPVTLANCEDEPIHVPGAIQPHGALVTLRADGMVLAASENIQALLGFVASPGSYLTQEQVGPEVLRMLEEGLTGNGPWSNSVETRIGEHLFDVIGHSYKEVFYLEFEIRTADTLSITSFTLNAQRIIAQVQLHNDTASLLSNVTDELRRMTGYDRVMAYRFRHDDSGEVVAESRREDLESYLGQRYPASDIPAQARRLYIQNPIRLIADVAYTPMRVFPALNPETNESFDLSYSVLRSVSPIHCEYLTNMGVRASMSISIVVGGKLWGLFSCHHMSPKLIPYPVRMSFQIFSQVCSAIVERLEQGRIAELLRVSTERRLALARRARDADDLFGALAHPDDGIAALIPCDGALVMLGGRTLSIRGDFERQAGNVLQRLQRDPERDIYHTDNWPQPSEDSPDGGDCCGVLAIRFHRQESGWIFWFRHEEVHRIRWGGKPEKLLTIGPSGPRLTPRGSFEAWEEVVRGHSTPWSETDLAIAEKLRLDLMELCLNHAAEVDRMRQRLIAVLGHDLRNPLQSISMAAALLSSSDTRTTELRQHISASSSRMERLVSQILDMSRLQSGIGLTVNPVDTDVSQLVRQIVCETDVAYPGLVIEIAIDPQVRAVVDPDRYAQVAANLLSNARHHGLPGRPVLVTLTRQGDEVCLSVLNETSGLSEAQLANLFEPFKRESADNQRNRNGLGIGLYISQAIAQAHQGRIDVDCRDDVITFCLRLPVRQAETGSSS
modifications: biliverdin chromophore (15Z in Pr, 15E in Pfr)
- stoichiometry N: 2
